Experimental data as given in the supplement of paper PMC9112550, “Optimization of the antimicrobial peptide Bac7 by deep mutational scanning” (BMC Biology, 2022).

test system: Escherichia coli TOP10; test: shrunken log2 fold change of peptide-encoding DNA abundance (4.5 h post-induction vs induction); higher = less antimicrobial activity (less host growth inhibition); details: time post-induction: 4.5 h; library: site-saturation at positions 5, 18, 19, 20
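Also: peptides expressed intracellularly from a pBAD plasmid library in pooled LB shake-flask culture, induced with 0.3% L-arabinose, DNA abundance read by NGS, three biological replicates, DESeq2 with apeglm shrinkage.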

| Sequence | shrunken log2 fold change |
| --- | --- |
| RRIRKRPPRLPRPRPRPWALPRP | -0.0102 |
| RRIRPRPPRLPRPRPRPIGEPRP | -0.0647 |
| RRIRGRPPRLPRPRPRPPREPRP | 1.3 |
| RRIRIRPPRLPRPRPRPDHMPRP | -0.87 |
| RRIRIRPPRLPRPRPRPHLPPRP | -0.0411 |
| RRIRIRPPRLPRPRPRPTQDPRP | -0.236 |
| RRIRYRPPRLPRPRPRPRWDPRP | -0.0245 |
| RRIRPRPPRLPRPRPRPWPKPRP | -0.0311 |
| RRIRWRPPRLPRPRPRPANMPRP | -0.0899 |
| RRIRWRPPRLPRPRPRPYWKPRP | -0.123 |
| RRIRQRPPRLPRPRPRPTKMPRP | -0.239 |
| RRIRSRPPRLPRPRPRPTKKPRP | 0.0472 |
| RRIRWRPPRLPRPRPRPLPSPRP | 0.515 |
| RRIRERPPRLPRPRPRPMFKPRP | -0.204 |
| RRIRYRPPRLPRPRPRPPRYPRP | -0.226 |
| RRIRARPPRLPRPRPRPWNWPRP | 0.376 |
| RRIRMRPPRLPRPRPRPFATPRP | 0.609 |
| RRIRNRPPRLPRPRPRPLTRPRP | 0.0454 |
| RRIRSRPPRLPRPRPRPELPPRP | 0.0311 |
| RRIRHRPPRLPRPRPRPGFKPRP | -0.206 |
| RRIRERPPRLPRPRPRPYYTPRP | -0.116 |
| RRIRRRPPRLPRPRPRPIYKPRP | -0.394 |
| RRIRDRPPRLPRPRPRPWCLPRP | -0.129 |
| RRIRMRPPRLPRPRPRPYAAPRP | 0.364 |
| RRIRTRPPRLPRPRPRPMMTPRP | 0.0356 |

| Sequence | shrunken log2 fold change |
| --- | --- |
| RRIRIRPPRLPRPRPRPGWYPRP | -0.221 |
| RRIRERPPRLPRPRPRPYFEPRP | -0.696 |
| RRIRFRPPRLPRPRPRPEDRPRP | 0.045 |
| RRIRPRPPRLPRPRPRPRSNPRP | -0.247 |
| RRIRERPPRLPRPRPRPTETPRP | -0.00327 |
| RRIRMRPPRLPRPRPRPDSKPRP | 0.732 |
| RRIRDRPPRLPRPRPRPNCVPRP | 0.0238 |
| RRIRWRPPRLPRPRPRPIHCPRP | 0.0948 |
| RRIRQRPPRLPRPRPRPQWFPRP | 0.0435 |
| RRIRRRPPRLPRPRPRPRPVPRP | 0.882 |
| RRIRWRPPRLPRPRPRPYHFPRP | 0.0137 |
| RRIRYRPPRLPRPRPRPVEHPRP | -0.0137 |
| RRIRKRPPRLPRPRPRPWQGPRP | 0.0142 |
| RRIRHRPPRLPRPRPRPNMLPRP | -0.387 |
| RRIRCRPPRLPRPRPRPASGPRP | 0.148 |
| RRIRTRPPRLPRPRPRPTHNPRP | 0.0318 |
| RRIRPRPPRLPRPRPRPTVEPRP | -0.104 |
| RRIRERPPRLPRPRPRPREQPRP | -0.0138 |
| RRIRRRPPRLPRPRPRPHPAPRP | 0.583 |
| RRIRWRPPRLPRPRPRPCYEPRP | -0.136 |
| RRIRIRPPRLPRPRPRPAQVPRP | -0.00946 |
| RRIRIRPPRLPRPRPRPMGNPRP | 0.0077 |
| RRIRPRPPRLPRPRPRPVTSPRP | 0.0344 |
| RRIRSRPPRLPRPRPRPGRGPRP | 0.715 |
| RRIRHRPPRLPRPRPRPMTDPRP | -0.898 |

| Sequence | shrunken log2 fold change |
| --- | --- |
| RRIRARPPRLPRPRPRPWFAPRP | 0.212 |
| RRIRRRPPRLPRPRPRPFFMPRP | -0.0188 |
| RRIRWRPPRLPRPRPRPAAWPRP | 0.121 |
| RRIRMRPPRLPRPRPRPATQPRP | 1.14 |
| RRIRVRPPRLPRPRPRPDYMPRP | 0.0631 |
| RRIRRRPPRLPRPRPRPMILPRP | 0.359 |
| RRIRSRPPRLPRPRPRPYHNPRP | -1.22 |
| RRIRHRPPRLPRPRPRPRACPRP | 0.0227 |
| RRIRERPPRLPRPRPRPFFAPRP | 0.848 |
| RRIRCRPPRLPRPRPRPVDMPRP | -0.247 |
| RRIRRRPPRLPRPRPRPEYIPRP | -0.199 |
| RRIRKRPPRLPRPRPRPGDDPRP | 0.758 |
| RRIRPRPPRLPRPRPRPLVEPRP | 0.846 |
| RRIRARPPRLPRPRPRPAHVPRP | 0.0804 |
| RRIRSRPPRLPRPRPRPPMHPRP | 0.25 |
| RRIRPRPPRLPRPRPRPWKIPRP | -0.244 |
| RRIRCRPPRLPRPRPRPEKLPRP | -0.077 |
| RRIRRRPPRLPRPRPRPVRMPRP | 0.497 |
| RRIRVRPPRLPRPRPRPLHDPRP | -0.41 |
| RRIRMRPPRLPRPRPRPAGVPRP | 0.688 |
| RRIRQRPPRLPRPRPRPTVKPRP | -0.096 |
| RRIRGRPPRLPRPRPRPSDWPRP | 0.251 |
| RRIRLRPPRLPRPRPRPPFNPRP | -0.116 |
| RRIRKRPPRLPRPRPRPGRYPRP | 0.426 |
| RRIRKRPPRLPRPRPRPPFPPRP | 0.582 |
